Here are results for one protein from patent publication US7279304B2, “Methods for preparation of macrocyclic molecules and macrocyclic molecules prepared thereby” (President and Fellows of Harvard College, priority 2000, dated 2007).

Experiment in all cases: purified protein, by the assay type
Common to all, as to format: biochemical

Substrate in data set [1]: CC(=O)NCCSC(=O)[C@H](CC(C)C)NC(=O)[C@H](CCCN)NC(=O)[C@@H](NC(=O)[C@H](CC(C)C)NC(=O)[C@@H](NC(=O)[C@@H]1CCCN1C(=O)[C@@H](Cc1ccccc1)NC(=O)[C@H](CC(C)C)NC(=O)[C@H](CCCN)NC(=O)[C@@H](NC(=O)[C@H](CC(C)C)NC(=O)[C@@H](NC(=O)[C@@H]1CCCN1C(=O)[C@H](N)Cc1ccccc1)C(C)C)C(C)C)C(C)C)C(C)C
Particulars: other: Table 2; cyclization of peptide-SNAC substrates of 6-14 amino acids. The method, then:
(§1) Macrocyclization reactions were carried out in 25 mM MOPS, pH 7.0 in a total volume of 400 μL. Reactions were initiated by addition of TycC TE and quenched at various time points by the addition of 25 μL 1.7% TFA/water, flash frozen in liquid nitrogen and stored at −80° C. (for Ex. 13, reactions were quenched by the addition of sodium phosphate, pH 5.3, to 100 mM). The reactions were then thawed, 85 μL acetonitrile added, and analyzed by analytical HPLC with monitoring at 220 nm (20% to 80% acetonitrile in 0.1% TFA/water, or in 25 mM potassium phosphate, pH 5.3 for Ex. 13, over 35 minutes, Vydac protein and peptide C18 column). Initial rates were calculated using 1 minute time points. Peptide-SNAC and reaction product concentrations were determined for all Tyr-containing peptides based on the estimated extinction coefficient ε (280 nm)=1,280 M^−1 cm^−1, which agrees with the experimentally determined ε (280 nm) of Ex. 1. For peptide-SNACs not containing Tyr, ε (220 nm) was determined experimentally, and concentrations of corresponding cyclic products determined by assuming equal ε (220 nm) values for the peptide-SNAC and cyclic product.

Substrate in data set [2]: CC(=O)NCCSC(=O)[C@H](CC(C)C)NC(=O)[C@H](CCCN)NC(=O)[C@@H](NC(=O)[C@H](C)NC(=O)[C@H](CCC(N)=O)NC(=O)[C@H](CC(N)=O)NC(=O)[C@@H](Cc1ccccc1)NC(=O)[C@H](Cc1ccccc1)NC(=O)[C@@H]1CCCN1C(=O)[C@H](N)Cc1ccccc1)C(C)C
Particulars: other: Table 1; macrocyclization of peptide-SNAC substrate; 25 mM MOPS, pH 7.0. The method, then: as §1

Substrate in data set [3]: CC(=O)NCCSC(=O)[C@H](CC(C)C)NC(=O)[C@H](CCC(=O)O)NC(=O)[C@@H](NC(=O)[C@H](Cc1ccc(O)cc1)NC(=O)[C@H](CCC(N)=O)NC(=O)[C@H](CC(N)=O)NC(=O)[C@@H](Cc1ccccc1)NC(=O)[C@H](Cc1ccccc1)NC(=O)[C@@H]1CCCN1C(=O)[C@H](N)Cc1ccccc1)C(C)C
The note with it: other: Table 1; macrocyclization of peptide-SNAC substrate; 25 mM MOPS, pH 7.0. The method, then: as §1

Substrate in data set [4]: CC(=O)NCCSC(=O)[C@H](CC(C)C)NC(=O)[C@H](CCCN)NC(=O)[C@@H](Cc1ccccc1)NC(=O)[C@H](CC(C)C)NC(=O)[C@H](CCCN)NC(=O)[C@H](N)Cc1ccccc1
Particulars: other: Table 2; cyclization of peptide-SNAC substrates of 6-14 amino acids. The method, then: as §1

Substrate in data set [5]: CC(=O)NCCSC(=O)[C@H](CC(C)C)NC(=O)[C@H](CCCN)NC(=O)[C@@H](NC(=O)[C@H](CC(C)C)NC(=O)[C@@H]1CCCN1C(=O)[C@@H](Cc1ccccc1)NC(=O)[C@H](CC(C)C)NC(=O)[C@H](CCCN)NC(=O)[C@@H](NC(=O)[C@H](CC(C)C)NC(=O)[C@@H]1CCCN1C(=O)[C@H](N)Cc1ccccc1)C(C)C)C(C)C
The note with it: other: Table 2; cyclization of peptide-SNAC substrates of 6-14 amino acids. As to the method: as §1

Substrate in data set [6]: CC(=O)NCCSC(=O)[C@H](CC(C)C)NC(=O)[C@H](CCCN)NC(=O)[C@@H]1CCCN1C(=O)[C@@H](Cc1ccccc1)NC(=O)[C@H](CC(C)C)NC(=O)[C@H](CCCN)NC(=O)[C@@H]1CCCN1C(=O)[C@H](N)Cc1ccccc1
The note with it: other: Table 2; cyclization of peptide-SNAC substrates of 6-14 amino acids. The method, then:
as §1

Substrate in data set [7]: CC(=O)NCCSC(=O)[C@H](CC(C)C)NC(=O)[C@H](CCCN)NC(=O)[C@@H](NC(=O)[C@H](Cc1ccc(O)cc1)NC(=O)[C@H](CCC(N)=O)NC(=O)[C@H](C)NC(=O)[C@H](CC(N)=O)NC(=O)[C@@H](Cc1ccccc1)NC(=O)[C@H](Cc1ccccc1)NC(=O)[C@@H]1CCCN1C(=O)[C@H](N)Cc1ccccc1)C(C)C
The note with it: other: Table 1; macrocyclization of peptide-SNAC substrate; 25 mM MOPS, pH 7.0. The method, then:
as §1

Substrate in data set [8]: CC(=O)NCCSC(=O)[C@H](CC(C)C)NC(=O)[C@H](CCCN)NC(=O)[C@@H](NC(=O)[C@H](Cc1ccc(O)cc1)NC(=O)[C@H](CCC(N)=O)NC(=O)[C@H](C)NC(=O)[C@@H](Cc1ccccc1)NC(=O)[C@H](Cc1ccccc1)NC(=O)[C@@H]1CCCN1C(=O)[C@H](N)Cc1ccccc1)C(C)C
Particulars: other: Table 1; macrocyclization of peptide-SNAC substrate; 25 mM MOPS, pH 7.0. As to the method:
as §1

Substrate in data set [9]: CC(=O)NCCSC(=O)[C@H](CC(C)C)NC(=O)[C@H](CCCN)NC(=O)[C@@H](NC(=O)[C@H](Cc1ccc(O)cc1)NC(=O)[C@H](CCC(N)=O)NC(=O)[C@H](CC(N)=O)NC(=O)[C@@H](Cc1ccccc1)NC(=O)[C@H](C)NC(=O)[C@@H]1CCCN1C(=O)[C@H](N)Cc1ccccc1)C(C)C
Particulars: other: Table 1; macrocyclization of peptide-SNAC substrate; 25 mM MOPS, pH 7.0. The method, then: as §1

Substrate in data set [10]: CC(=O)NCCSC(=O)[C@H](CC(C)C)NC(=O)[C@H](CCCN)NC(=O)[C@@H](NC(=O)[C@H](Cc1ccc(O)cc1)NC(=O)[C@H](C)NC(=O)[C@H](CC(N)=O)NC(=O)[C@@H](Cc1ccccc1)NC(=O)[C@H](Cc1ccccc1)NC(=O)[C@@H]1CCCN1C(=O)[C@H](N)Cc1ccccc1)C(C)C
Particulars: other: Table 1; macrocyclization of peptide-SNAC substrate; 25 mM MOPS, pH 7.0. The method, then: as §1

B1: TycC TE (excised TE domain protein from the tyrocidine NRPS) (Brevibacillus parabrevis) (protein)
chain: FESRYGTAILLNQETARNVFCFTPIGAQSVYYQKLAAEIQGVSLYSFDFIQDDNRMEQYIAAITAIDPSGPYTLMGYSSGGNLAFEVAKELEERGYGVTDIILFDSYWKDKAIERTVAETENDIAQLFAEIGENTEMFNMTQEDFQLYAANEFVKQSFVRKTVSYVMFHNNLVNTGMTTAAIHLIQSELEADEEAPVAAKWNESAWANATQRLLTYSGHGIHSRMLAGDYASQNASILQNILQELFILK
notes: excised TE domain protein from the tyrocidine NRPS (TycC TE); made in house
A word on the Km: it is the substrate concentration at which the rate is half of its maximum. The term kcat denotes the maximal rate divided by the concentration of active sites. With B1, the Michaelis-Menten constant (Km) in [1] was 5 µM; in [2], 15 µM; in data set [3] it was 56 µM; in [4], 4 µM; in data set [5], 6 µM; in data set [6], 3 µM. Besides, the Km amounted to 20 µM in data set [7], 6 µM in [8], 6 µM in [9] and 4 µM in data set [10]. Moreover, the turnover number (kcat) in [1] is 0.1 s⁻¹; in [4], 0.5 s⁻¹; in data set [5] it was 0.367 s⁻¹; in data set [6], 0.283 s⁻¹.
